# Experimental data published in US12329801B2, “Regenerative polypeptides and uses thereof” (JUVENA THERAPEUTICS, INC., priority 2021, dated 2025).
# Test system: DM1 human myoblast
# Assay: Myogenic gene expression fold change in DM1 human myoblast
# Assay type: cell-based
# Conditions: 48 h; BMP7 50 ng/mL, Butyrate 100 nM, IGF2 200 ng/mL
# Procedure: Myoblasts were cultured 48 h in the presence of factors (BMP7 50 ng/mL, Butyrate 100 nM, IGF2 200 ng/mL).
# Myoblasts were cultured 96 h in the presence of factors (IGF2 200 ng/ml). […] Myoblasts were cultured 48 h in the presence of factors (IGF2 200 ng/mL).
# IGF2 was tested individually for its ability to promote proliferation and/or fusion of human muscle progenitor cells from an individual with myotonic dystrophy type 1 (hMD)—a muscular dystrophy caused by mutations in the DMPK1 gene. The effect of IGF2 on myogenic activity was assayed in biological triplicate across a range of concentrations centered around expected physiological levels by adding each factor to hMD myoblasts for 72 hours with daily media changes (DMEM +2% horse serum) and a second pulse of factors at the first media change. After 72 or 96 hours, cells were pulsed for 2-5 hours with EdU (30 uM), ethanol fixed, stained with Hoescht 3342, immunostained for proliferation—as measured by the percent of cells staining positive for EdU (% EdU)-, and immunostained for differentiation—as measured by the increase in cellular area staining positive for embryonic myosin heavy chain (% eMyHC) relative to the negative controls, which received media and vehicle only. Wells were imaged on a Keyence BZ-100 at 4×, the images quantified in Cell Profiler, and the statistics were computed in R. Additionally, RNA was extracted from myoblast and select transcript abundances quantified by qPCR.
molecule,measurement,value
"BMP7: factor BMP7, 50 ng/mL, tested on DM1 human myoblast (protein, UniProt P18075 293-431, looked up) Bone morphogenetic protein 7: STGSKQRSQNRSKTPKNQEALRMANVAENSSSDQRQACKKHELYVSFRDLGWQDWIIAPEGYAAYYCEGECAFPLNSYMNATNHAIVQTLVHFINPETVPKPCCAPTQLNAISVLYFDDSSNVILKKYRNMVVRACGCH",MYF5 expression fold change compared to FM (vehicle),0.709
same,MYOD1 expression fold change compared to FM (vehicle),0.709
same,MYOG expression fold change compared to FM (vehicle),0.361
